{"source": "paper doi:10.1101/2024.07.23.604836", "target": "T1, TLR7-Fc (toll-like receptor 7 ectodomain fused to human Fc) (UniProt Q9NYK1 27-839)", "T1 sequence": "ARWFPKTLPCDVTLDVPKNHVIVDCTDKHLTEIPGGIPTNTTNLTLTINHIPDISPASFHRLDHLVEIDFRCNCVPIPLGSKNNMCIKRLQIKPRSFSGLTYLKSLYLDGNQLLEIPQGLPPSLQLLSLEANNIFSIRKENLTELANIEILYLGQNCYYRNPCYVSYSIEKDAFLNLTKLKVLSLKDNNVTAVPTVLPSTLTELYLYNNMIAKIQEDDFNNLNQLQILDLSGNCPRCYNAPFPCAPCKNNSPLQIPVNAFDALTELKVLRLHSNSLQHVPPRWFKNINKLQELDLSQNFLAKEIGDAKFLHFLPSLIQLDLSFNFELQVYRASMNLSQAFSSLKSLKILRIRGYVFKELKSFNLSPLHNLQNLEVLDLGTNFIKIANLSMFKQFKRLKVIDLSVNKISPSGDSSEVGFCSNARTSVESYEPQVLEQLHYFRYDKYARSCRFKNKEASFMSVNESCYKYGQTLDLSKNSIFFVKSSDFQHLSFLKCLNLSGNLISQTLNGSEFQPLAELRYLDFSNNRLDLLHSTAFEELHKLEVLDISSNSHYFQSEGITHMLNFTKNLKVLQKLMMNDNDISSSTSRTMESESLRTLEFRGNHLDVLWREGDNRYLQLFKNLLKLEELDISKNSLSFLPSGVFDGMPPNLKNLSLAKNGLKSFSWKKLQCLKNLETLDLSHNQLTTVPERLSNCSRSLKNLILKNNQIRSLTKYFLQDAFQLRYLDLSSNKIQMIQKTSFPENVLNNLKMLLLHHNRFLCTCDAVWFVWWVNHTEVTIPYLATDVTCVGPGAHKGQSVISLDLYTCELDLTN", "test": "competition"}
{"binder": "GUCUUCAAAACUAGGUCGUUUUAGA (ssRNA, 5' phosphate; 3' biotin)", "note": "[competitor ssRNA]", "values": [{"measurement": "binding result", "value": "binds"}]}
